Source: publication PMC11544104

How the values were obtained:
[1] = target: H3K56ac-mononucleosome assembled with 35N35 DNA (Xenopus laevis); test: pull-down
[2] = test system: BAF complex, FLAG-DPF2 WT (293T) (human); test: pull-down; settings: histone H3K56ac (recombinant Xenopus laevis octamer)

fold reduction of the preferential interaction against the WT complex [1] [fold] | Substance | binding signal (normalized bound DPF2 (reference)) [2]
5 | BAF complex containing DPF2 R350H (from UniProt Q92785;P51532) | 
5 | BAF complex containing DPF2 C330W (from UniProt Q92785;P51532) | 
 | 35N35 mononucleosome, H3K56ac | 1
5 | BAF complex containing DPF2 W369R (from UniProt Q92785;P51532) | 
